Data as given in the supplement of paper PMC10201428.
± gives the standard deviation of the averaged measurements.

Key:
[1] = test system: VchCAST RNA-guided transposition machinery (E. coli BL21(DE3) host, lacZ target); test: relative integration efficiency (T-RL orientation) vs wild-type transposon end (log2 (normalized fold change)); transposon end mutated: right end (5 bp flank + 75 bp right end); higher = more efficient transposition
In short: (§1)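 A T7-driven effector plasmid encoding a CRISPR array, tniQ-cas8-cas7-cas6 and tnsA-tnsB-tnsC was co-transformed into E. coli BL21(DE3) together with a pUC57 mini-transposon donor holding barcoded pools of 1549 left-end or 1849 right-end variants. Transformants were plated with 0.1 mM IPTG at 37°C for 18 h. Illumina sequencing of PCR-amplified input plasmids and genomic integration junctions gave barcode abundances, and relative integration efficiency is their output/input fold change, normalised to reference barcodes and log-transformed.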

[2] = test system: VchCAST RNA-guided transposition machinery (E. coli BL21(DE3) host, lacZ target); test: relative integration efficiency (T-LR orientation) vs wild-type transposon end (log2 (normalized fold change)); transposon end mutated: right end (5 bp flank + 75 bp right end); higher = more efficient transposition
In short: as §1

| Sequence | relative integration efficiency (log2) [1] | relative integration efficiency (log2) [2] |
| --- | --- | --- |
| ACATTTGTTGATACAACCATCAAATGATAATTCCACCCATACATTGATAATTATCACACCCAATTTAACTATAACGCTCTGATCATAGTCAGACCAACATTGCTACGACCCGTATTCGCACCGACAC | -3.05 ± 0.042 | -0.154 ± 0.093 |
| ACATTTGTTGATACAACCATCAAATGATAATTCCACCCCTAAATTGATAATTATCACACCCAATTTAACTATAACGCTCTGATCATAGTCAGACCAACATTGCTACGACCCGTATTCGCACCGACAC | -3.65 ± 0.074 | -1.01 ± 0.31 |
| ACATTTGTTGATACAACCATCAAATGATAATTCCACCCCTACATTGATAATTATCACACCCAATTTAACTATAACGCTCTGATCATAGTCAGACCAACATTGCTACGACCCGTATTCGCACCGACAC | -4.18 ± 0.17 | -0.8 ± 0.15 |
| ACATTTGTTGATACAACCATCAAATGGTAATTACACCCATAAATTGATAATTATCACACCCAATTTAACTATAACGCTCTGATCATAGTCAGACCAACATTGCTACGACCCGTATTCGCACCGACAC | -0.349 ± 0.42 | 2.24 ± 0.09 |
| ACATTTGTTGATACAACCATCAAATGGTAATTACACCCATACATTGATAATTATCACACCCAATTTAACTATAACGCTCTGATCATAGTCAGACCAACATTGCTACGACCCGTATTCGCACCGACAC | -4.04 ± 0.11 | -1.54 ± 0.61 |
| ACATTTGTTGATACAACCATCAAATGGTAATTACACCCCTAAATTGATAATTATCACACCCAATTTAACTATAACGCTCTGATCATAGTCAGACCAACATTGCTACGACCCGTATTCGCACCGACAC | -4.79 ± 0.36 | -2.01 ± 0.77 |
| ACATTTGTTGATACAACCATCAAATGGTAATTACACCCCTACATTGATAATTATCACACCCAATTTAACTATAACGCTCTGATCATAGTCAGACCAACATTGCTACGACCCGTATTCGCACCGACAC | -5.5 ± 0.092 | -3.18 ± 1.1 |
| ACATTTGTTGATACAACCATCAAATGGTAATTCCACCCATAAATTGATAATTATCACACCCAATTTAACTATAACGCTCTGATCATAGTCAGACCAACATTGCTACGACCCGTATTCGCACCGACAC | -2.06 ± 0.2 | 0.505 ± 0.11 |
| ACATTTGTTGATACAACCATCAAATGGTAATTCCACCCATACATTGATAATTATCACACCCAATTTAACTATAACGCTCTGATCATAGTCAGACCAACATTGCTACGACCCGTATTCGCACCGACAC | -4.83 ± 0.15 | -2.28 ± 0.36 |
| ACATTTGTTGATACAACCATCAAATGGTAATTCCACCCCTAAATTGATAATTATCACACCCAATTTAACTATAACGCTCTGATCATAGTCAGACCAACATTGCTACGACCCGTATTCGCACCGACAC | -5.34 ± 0.16 | -2.59 ± 0.29 |
| ACATTTGTTGATACAACCATCAAATGGTAATTCCACCCCTACATTGATAATTATCACACCCAATTTAACTATAACGCTCTGATCATAGTCAGACCAACATTGCTACGACCCGTATTCGCACCGACAC | -5.71 ± 0.097 | -3.06 ± 0.11 |
| ACATTTGTTGATACAACCATCCAATGATAATTACACCCATAAATTGATAATTATCACACCCATAAATTGATATTGCCTCTGATCATAGTCAGACCAACATTGCTACGACCCGTATTCGCACCGACAC | -1.36 ± 0.083 | -2.03 ± 0.58 |
| ACATTTGTTGATACAACCATCCCCTGATAATTACACCCATAAATTGATAATTATCACACCCATAAATTGATATTGCCTCTGATCATAGTCAGACCAACATTGCTACGACCCGTATTCGCACCGACAC | -2.13 ± 0.056 | -1.78 ± 0.023 |
| ACATTTGTTGATACAACCATCCCCTGATAATTACACCCATCCCGTGATAATTATCACACCCATCCCGTGATATTGCCTCTGATCATAGTCAGACCAACATTGCTACGACCCGTATTCGCACCGACAC | -5.99 ± 0.12 | -3.86 ± 0.83 |
| ACATTTGTTGATACAACCATTAAATAATAATTCCACCCATAAATTGATAATTATCACACCCAATTTAACTATAACGCTCTGATCATAGTCAGACCAACATTGCTACGACCCGTATTCGCACCGACAC | -1.71 ± 0.2 | 1.55 ± 0.071 |
| ACATTTGTTGATACAACCATTAAATGATAATTACACCCAAAAATTGATAATTATCACACCCAATTTAACTATAACGCTCTGATCATAGTCAGACCAACATTGCTACGACCCGTATTCGCACCGACAC | -0.982 ± 0.24 | 2.03 ± 0.09 |
| ACATTTGTTGATACAACCATTAAATGATAATTACACCCATAAATTGATAATAATGACACCGAATTTAACTATAACGCTCTGATCATAGTCAGACCAACATTGCTACGACCCGTATTCGCACCGACAC | -0.985 ± 0.22 | 1.98 ± 0.0099 |
| ACATTTGTTGATACAACCATTAAATGATAATTACACCCATAAATTGATAATGATGACACCGAATTTAACTATAACGCTCTGATCATAGTCAGACCAACATTGCTACGACCCGTATTCGCACCGACAC | -1.3 ± 0.18 | 1.9 ± 0.16 |

| Sequence | relative integration efficiency (log2) [1] | relative integration efficiency (log2) [2] |
| --- | --- | --- |
| ACATTTGTTGATACAACCATTAAATGATAATTACACCCATAAATTGATAATTGTGACACCGAATTTAACTATAACGCTCTGATCATAGTCAGACCAACATTGCTACGACCCGTATTCGCACCGACAC | -1.2 ± 0.14 | 1.99 ± 0.027 |
| ACATTTGTTGATACAACCATTAAATGATAATTACACCCATAATTTGATAATTATCACACCCAATTTAACTATAACGCTCTGATCATAGTCAGACCAACATTGCTACGACCCGTATTCGCACCGACAC | -0.76 ± 0.025 | 2.23 ± 0.16 |
| ACATTTGTTGATACAACCATTAAATGATAATTACACCCATATATTGATAATTATCACACCCAATTTAACTATAACGCTCTGATCATAGTCAGACCAACATTGCTACGACCCGTATTCGCACCGACAC | -0.809 ± 0.018 | 2.04 ± 0.065 |
| ACATTTGTTGATACAACCATTAAATGATAATTACACCCATTAATTGATAATTATCACACCCATTAATTGATATTGCCTCTGATCATAGTCAGACCAACATTGCTACGACCCGTATTCGCACCGACAC | -0.515 ± 0.021 | -0.0993 ± 0.43 |
| ACATTTGTTGATACAACCATTAAATGATAATTCCACCAATAAATTGATAATTATCACACCCAATTTAACTATAACGCTCTGATCATAGTCAGACCAACATTGCTACGACCCGTATTCGCACCGACAC | -1.51 ± 0.17 | 1.37 ± 0.042 |
| ACATTTGTTGATACAACCATTAAATGATAATTCCACCCAAAAATTGATAATTATCACACCCAATTTAACTATAACGCTCTGATCATAGTCAGACCAACATTGCTACGACCCGTATTCGCACCGACAC | -0.813 ± 0.13 | 2.42 ± 0.24 |
| ACATTTGTTGATACAACCATTAAATGATAATTCCACCCAAATATTGATAATTATCACACCCAATTTAACTATAACGCTCTGATCATAGTCAGACCAACATTGCTACGACCCGTATTCGCACCGACAC | -1.51 ± 0.05 | 1.47 ± 0.08 |
| ACATTTGTTGATACAACCATTAAATGATAATTCCACCCAGAAATTGATAATTATCACACCCAATTTAACTATAACGCTCTGATCATAGTCAGACCAACATTGCTACGACCCGTATTCGCACCGACAC | -3.25 ± 0.24 | -0.278 ± 0.36 |
| ACATTTGTTGATACAACCATTAAATGATAATTCCACCCATAAATTGATAATTATCACACCCAATTTAACTATAACGCTCTGATCATAGTCAGACCAACATTGCTACGACCCGTATTCGCACCGACAC | -1.06 ± 0.17 | 2.34 ± 0.17 |
| ACATTTGTTGATACAACCATTAAATGATAATTCCACCCATAACTTGATAATTATCACACCCAATTTAACTATAACGCTCTGATCATAGTCAGACCAACATTGCTACGACCCGTATTCGCACCGACAC | -1.14 ± 0.15 | 1.93 ± 0.17 |
| ACATTTGTTGATACAACCATTAAATGATAATTCCACCCATAATTTGATAATTATCACACCCAATTTAACTATAACGCTCTGATCATAGTCAGACCAACATTGCTACGACCCGTATTCGCACCGACAC | -0.743 ± 0.14 | 2.52 ± 0.061 |
| ACATTTGTTGATACAACCATTAAATGATAATTCCACCCATACATTGATAATTATCACACCCAATTTAACTATAACGCTCTGATCATAGTCAGACCAACATTGCTACGACCCGTATTCGCACCGACAC | -2.63 ± 0.34 | 0.395 ± 0.29 |
| ACATTTGTTGATACAACCATTAAATGATAATTCCACCCATATATTGATAATTATCACACCCAATTTAACTATAACGCTCTGATCATAGTCAGACCAACATTGCTACGACCCGTATTCGCACCGACAC | -1.24 ± 0.15 | 2.16 ± 0.074 |
| ACATTTGTTGATACAACCATTAAATGATAATTCCACCCATCAATTGATAATTATCACACCCAATTTAACTATAACGCTCTGATCATAGTCAGACCAACATTGCTACGACCCGTATTCGCACCGACAC | -1.79 ± 0.23 | 1.01 ± 0.31 |
| ACATTTGTTGATACAACCATTAAATGATAATTCCACCCCTAAATTGATAATTATCACACCCAATTTAACTATAACGCTCTGATCATAGTCAGACCAACATTGCTACGACCCGTATTCGCACCGACAC | -2.75 ± 0.27 | 0.256 ± 0.39 |
| ACATTTGTTGATACAACCATTAAATGATAATTCCACCCTTAAATTGATAATTATCACACCCAATTTAACTATAACGCTCTGATCATAGTCAGACCAACATTGCTACGACCCGTATTCGCACCGACAC | -2.08 ± 0.36 | 0.973 ± 0.22 |
| ACATTTGTTGATACAACCATTAAATGCTAATTCCACCCATAAATTGATAATTATCACACCCAATTTAACTATAACGCTCTGATCATAGTCAGACCAACATTGCTACGACCCGTATTCGCACCGACAC | -0.972 ± 0.32 | 2.09 ± 0.22 |
